According to patent US20250270341A1 (Alector, published 2025):

T1: Cyno CD98hc ECD Avi-His (cynomolgus macaque, UniProt P08195 105-529 (human entry))
T1 construct: biotinylated on the Avi tag where captured on streptavidin; also called Cyno CD98-AVI-His; Cyno CD98hc-AVI-His
T1 chain: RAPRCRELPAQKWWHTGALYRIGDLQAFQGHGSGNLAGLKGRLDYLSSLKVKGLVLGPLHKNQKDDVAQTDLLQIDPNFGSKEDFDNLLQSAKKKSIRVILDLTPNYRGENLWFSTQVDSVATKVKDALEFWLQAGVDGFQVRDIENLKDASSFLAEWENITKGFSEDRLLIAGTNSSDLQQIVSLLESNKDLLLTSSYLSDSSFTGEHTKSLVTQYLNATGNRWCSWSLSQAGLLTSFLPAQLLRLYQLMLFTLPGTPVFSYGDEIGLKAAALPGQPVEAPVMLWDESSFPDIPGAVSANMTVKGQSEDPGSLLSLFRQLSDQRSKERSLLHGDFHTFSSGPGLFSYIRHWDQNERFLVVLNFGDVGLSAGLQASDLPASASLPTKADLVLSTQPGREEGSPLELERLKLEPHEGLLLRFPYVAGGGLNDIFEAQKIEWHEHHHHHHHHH

T2: muCD98hc ECD Avi-His (mouse, UniProt P10852 100-526)
T2 construct: biotinylated on the Avi tag where captured on streptavidin; also called Mouse CD98-AVI-His; Mouse CD98hc-AVI-His
T2 sequence: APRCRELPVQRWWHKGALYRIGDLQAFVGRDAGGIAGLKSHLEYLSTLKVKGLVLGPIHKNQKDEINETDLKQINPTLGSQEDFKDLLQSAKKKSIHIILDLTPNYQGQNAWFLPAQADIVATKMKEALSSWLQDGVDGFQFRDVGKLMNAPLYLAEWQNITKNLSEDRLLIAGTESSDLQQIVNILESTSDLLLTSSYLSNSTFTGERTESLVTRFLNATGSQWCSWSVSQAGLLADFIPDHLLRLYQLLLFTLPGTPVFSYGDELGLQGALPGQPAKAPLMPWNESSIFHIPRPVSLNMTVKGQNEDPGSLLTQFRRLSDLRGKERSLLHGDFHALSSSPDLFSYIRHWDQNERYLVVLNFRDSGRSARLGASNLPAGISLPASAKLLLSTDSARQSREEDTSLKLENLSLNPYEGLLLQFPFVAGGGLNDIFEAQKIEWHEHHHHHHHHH

T3: huCD98hc ECD Avi-His (human, UniProt P08195 105-529)
T3 construct: biotinylated on the Avi tag where captured on streptavidin; also called Human CD98-AVI-His; Human CD98hc-AVI-His
T3 sequence: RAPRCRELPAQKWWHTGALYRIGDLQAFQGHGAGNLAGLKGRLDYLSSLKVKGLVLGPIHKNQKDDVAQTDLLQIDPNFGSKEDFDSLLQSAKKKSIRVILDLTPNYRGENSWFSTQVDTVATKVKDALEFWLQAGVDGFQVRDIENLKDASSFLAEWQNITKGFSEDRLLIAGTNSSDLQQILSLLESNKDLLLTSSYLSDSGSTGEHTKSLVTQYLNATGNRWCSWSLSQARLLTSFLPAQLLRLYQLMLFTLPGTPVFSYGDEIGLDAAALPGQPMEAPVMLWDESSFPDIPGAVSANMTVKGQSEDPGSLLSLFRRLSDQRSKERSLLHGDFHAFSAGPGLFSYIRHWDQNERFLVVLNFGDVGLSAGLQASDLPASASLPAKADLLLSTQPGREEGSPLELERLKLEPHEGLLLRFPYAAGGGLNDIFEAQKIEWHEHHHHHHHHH

B1: CD98HC.04.013 (antibody, V domains shown)
VH: EVQLVESGGDLGMPGGSLKLSCAASGFALSGYDMSWVRQTPDKRLEWVAYLSSGGGSTYYPYTVKGRFTISRDNAQNTLYLQMSSLKSEDTAIYYCARHSEVRPWFGYWGQGTLVTVSA
VL: DIVMSQSPSSLAVSVGEKVTLTCKSSQSLLYSGNQKNYLAWYQQNPGQSPKLLIYWASTRESGVPDRFTGSGSGTDFTLTISSVKAEDLAVYYCQQYYTYPPTFGAGTKLGLK
notes: hybridoma IgG
B2: CD98HC.04.012 (antibody, V domains shown)
VH: QVQLQQSGADLVRPGDSVKISCKGSGYTFTDNTLHWVKQSHAKSLEWIGVISPYYGDASYNQKFKGKATMTVDKSSSTAYMELARLTSEDSAIYYCARVGGRLRLGYYFDHWGQGTTLTVSS
VL: NIMMTQSPSSLAVSAGEKVTMNCKSSQSVLSSSNQKNYLAWYQQKPGQSPKLLIYWASTRESGVPARFTGSGSGTDFSLTITSVQAEDLAVYYCLQYLSSYTFGGGTKLEIK
notes: hybridoma IgG
B3: CD98HC.04.010 (antibody, V domains shown)
VH: QVQLQQSGAELMKPGASVKISCKATGYTFSTYWIEWVKQRPGHGLEWIGEILPGSGTTTYNEKFKGKATFTADTSSNTAYMQLSSLTSEDSAVYYCARRTVYYRYEGIDYWGQGTTLTVSS
VL: QIVLTQSPAIMSASPGEKVTITCSASSSVSYMFWFQQRPGTSPKLWIYTTSNLASGVPARFSGSGSGTSYSLTISRMEAEDAATYYCQQKNNYPFTFGSGTKLEIK
notes: hybridoma IgG
B4: CD98HC.04.018 (antibody, V domains shown)
VH: QIQLVQSGPELKKPGETVKISCKASGYTFRNYGMNWVKQAPGKGLKWMGWINTYTGEPTYAEDFKGRFAFSLETSASTAYLQINKLKNEDEATYFCARGEAHWYFDVWGAGTTVTVSS
VL: QIVLTQSPAIMSASLGERVTMTCTASSSVSSSYLYWYQQKPGSSPKLWIYSIFNLASGVPARFSGSGSGTSYSLTISSMEAEDAATYYCHQYHRSPPTFGGGTKLEIK
notes: hybridoma IgG
B5: CD98HC.04.045 (antibody, V domains shown)
VH: QIQLVQSGPELKKPGETVKISCKASGYSITNFGMNWVKQAPGKGLKWMGWVNTYTGEPTYADDFKGRFAFSLETSASTASLQINNLKNEDTATYFCTRSVITYTMDYWGQGTSVTVSS
VL: DIQLTQSPSSLSASLGERVSLTCRASQEISGYLSWLQQKPDGTIKRLIYAASTLDSGVPKRFSGSRSGSDYSLTISSLESEDFADYYCLQYASYPRTFGGGTKVEIK
notes: hybridoma IgG
B6: CD98HC.04.022 (antibody, V domains shown)
VH: EVQLQQSGAELVKPGASVKLSCTASGFNIKDTFMHWMKQRPEQGLEWIGRIDPANANTRYDPKFQGKATITTDTSSNTAYLQLSSLTSEDTAVYYCARDVYYDVWGAGTTVTVSS
VL: DILMTQSPSSMSVSLGDTVTITCHASQGISSNIGWLQQKPGRSFKGLIYHGSNLEDGVPSRFTGSGSGTDYSLTISGLESEDFADYYCVQYAQFPRTFGGGTKLEIQ
notes: hybridoma IgG
B7: CD98HC.04.011 (antibody, V domains shown)
VH: DVQLQESGPDLVKPSQSLSLTCSVTVYSFTSVYSWHWIRQFPGNKLEWMGYIHDSGTTNYNPSLKSRISVTRDTSKNQFFLQLNSVTTEDTATYYCARGRPYGYDGFAYWGQGTLVTVSA
VL: DIQMTQSSSYLSVSLGDRVTITCKASDHINNWLAWYQQKPGNAPRLLITGAVNLETGVPSRFSGSGSGKDYTLSITSLQTEDVATYYCQQYWSIPRTFGGGTNLEIK
notes: hybridoma IgG
B8: CD98HC.03.031 (antibody, V domains shown)
VH: QVQLQQSGAELVRPGVSVKISCKASGYTFTDYAMHWVKQSHAKSLEWIGVISTYYGDTTYNQKFKDKATMTVDKSSSTAYLELARLTSEDSAIYYCARVWLLSYAMDNWGQGTSVTVSS
VL: DIVMTQSQRFMSTSVGDGVRITCKASQNVRTAVAWYQQKPGQSPKALINLAPNRHTGVPDRFTARGSGTDFTLTISNVQSEDLADYFCLQHWNYPLTFGAGTKLELK
notes: hybridoma IgG
B9: CD98HC.03.002 (antibody, V domains shown)
VH: DVQLVESGGGLVQPGGSRKLSCAASGFTFSTFGMHWVRQAPEKGLEWVAYISGGSTNIYYADTVKGRFTISRDNPKNTLFLQMTSLRSEDTAMYYCARETTLLATNFDYWGQGTTLTVSS
VL: DIQMTQTTSSLSASLGDRVTISCRASQDISNYLNWYQQKPDGTVKLLIYYTSRLHSGVPSRFSGSGSGTDYSLTISNLEQEDIATYFCQQGSTLPRTFGGGTKLEIK
notes: hybridoma IgG
B10: CD98HC.04.003 (antibody, V domains shown)
VH: QVQLQQSGAELAKPGASLKMSCKASGYTFTDYYIHWVKQRPGQDLEWIGYINPNSAYTDSNQKFKDKATLTADKSSNTAYMQLSSLTSEDSAVYYCARKGHFYAPSFAYWGQGTLVTVSA
VL: DIQMTQTTSSLSASLGDRVTISCRASQDISNYLNWYQQKPDGTVKLLIYYTSRLHSGVPSRFSGSGSGADYSLTISNLQQEDIATYFCQQGDTLPYTFGGGTKLEIE
notes: hybridoma IgG
B11: CD98HC.04.009 (antibody, V domains shown)
VH: QVQLKESGPGLVAPSQSLSITCTVSGFSLTSYGVHWVRQPPGKGLEWLGVIWAGGSTYYNSALMSRLSISKDNAKSQVLLKMSSLQTDDTAMYYCARDNYGGVYLDVWGAGTTVTVSS
VL: ENVLTQSPASMSASPGEKVTMTCRASSSVSSSYLHWYQQKSGASPKLWIYSTSNLASGVPARFSGSGSGTSYSLTISSVEAEDAATYYCQQYSGYPLTFGSGTKLEIK
notes: hybridoma IgG
B12: CD98HC.04.006 (antibody, V domains shown)
VH: EVNLVESGGDLVQPGGSLRLSCATSGFTFTDYFMSWVRQPPGKALEWLGFIRNKAYGYTTEYSASVKGRFTISRDNSQSIFYLQMNTLRLEDSATYYCARGPFISTAPFAYWGQGTLVTVSA
VL: DIVMSQSPSSLAVSVGETVTMSCKSSQSLLYSSNQKNYLAWYQQKPGQSPKLLIYWGSTRESGVPDRFTGSGSGTDFTLTISSVKAEDLAVYYCQHYYGYPWTFGGGTKLEIK
notes: hybridoma IgG

Experiments:
Assay in all cases: ELISA, hybridoma supernatant
[1] = target: T1, Cyno CD98hc ECD Avi-His
Protocol: (§1) Briefly, 96-well polystyrene plates were coated with 5 μg/ml of streptavidin (Thermo Fisher, Cat #PI21125) in coating buffer (0.05M carbonate buffer, pH 9.6, Sigma, Cat #C3041) overnight at 4° C. Coated plates were then blocked with ELISA diluent (PBS+0.5% BSA+0.05% Tween20) for one hour. Blocking buffer was removed and human, cyno, or mouse Avi-His-tagged CD98hc and Avi-His-tagged human TfR polypeptides were added at 1 μg/ml in ELISA diluent and captured for 1 hour at room temperature. After washing three times with 300 μl of PBST (PBS+0.05% Tween20, Thermo 28352), the hybridoma cell culture supernatants or 1 μg/ml of commercially available purified mouse anti-human CD98hc monoclonal antibody (Sigma Aldrich, Cat #SAB 4700503) and rat anti-mouse CD98hc antibody (Bio-Rad Laboratories, Hercules, CA, Cat #MCA2684) were added (50 μl/well) to each well. After 30 minutes of incubation at room temperature, the plates were washed three times with 300 μl of PBST. […] After a final set of washes (3×300 μl in PBST), 50 μl/well of BioFx TMB substrate (Surmodics, Eden Praire, MN, Cat #TMBW-1000-01) was added to the wells. The reaction was then quenched after 5-10 mins with 50 μl/well of 2N sulfuric acid. The plates were read for absorbance at 450 nm on a SpectraMax M5 (Molecular Devices, Sunnyvale, CA) using SoftMax Pro software.

[2] = target: T2, muCD98hc ECD Avi-His
Protocol: as §1

[3] = target: T4, Human TfR-AVI-His (control) (human, UniProt P02786 89-760)
T4 construct: control protein; also called Avi-His-tagged human TfR; human transferrin receptor
T4 sequence (P02786 89-760 limits assumed): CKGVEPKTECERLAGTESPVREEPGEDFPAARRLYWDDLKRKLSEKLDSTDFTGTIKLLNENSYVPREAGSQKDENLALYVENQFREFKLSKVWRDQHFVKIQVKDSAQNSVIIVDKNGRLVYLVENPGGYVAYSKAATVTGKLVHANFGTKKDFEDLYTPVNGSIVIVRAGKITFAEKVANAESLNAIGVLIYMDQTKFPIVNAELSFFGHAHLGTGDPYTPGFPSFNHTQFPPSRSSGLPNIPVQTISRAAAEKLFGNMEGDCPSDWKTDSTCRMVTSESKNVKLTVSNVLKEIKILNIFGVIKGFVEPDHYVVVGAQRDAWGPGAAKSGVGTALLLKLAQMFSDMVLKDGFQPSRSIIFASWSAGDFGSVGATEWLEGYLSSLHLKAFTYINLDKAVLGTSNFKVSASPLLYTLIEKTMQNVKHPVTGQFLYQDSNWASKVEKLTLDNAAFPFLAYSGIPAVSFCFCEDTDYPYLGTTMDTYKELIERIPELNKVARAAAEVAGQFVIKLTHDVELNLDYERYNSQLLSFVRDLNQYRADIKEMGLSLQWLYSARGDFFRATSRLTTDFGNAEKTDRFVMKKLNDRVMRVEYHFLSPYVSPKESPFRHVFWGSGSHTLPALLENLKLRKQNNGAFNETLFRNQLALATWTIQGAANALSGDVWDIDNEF
Protocol: as §1

[4] = target: T3, huCD98hc ECD Avi-His
Protocol: as §1

Row | Binder | OD450 [1] | OD450 [2] | OD450 [3] | OD450 [4]
1 | B1 | 2.04 | 0.0717 | 0.0667 | 1.17
2 | B2 | 1.73 | 0.0786 | 0.074 | 1.64
3 | B3 | 1.97 | 0.0907 | 0.102 | 1.48
4 | B4 | 1.97 | 0.079 | 0.0717 | 1.64
5 | B5 | 1.34 | 0.0764 | 0.103 | 1.51
6 | B6 | 1.89 | 0.0554 | 0.0533 | 1.36
7 | B7 | 1.76 | 0.067 | 0.0705 | 1.16
8 | B8 | 1.48 | 0.0843 | 0.0873 | 1.06
9 | B9 | 1.69 | 0.0802 | 0.073 | 1.53
10 | B10 | 2.05 | 0.0565 | 0.0601 | 1.6
11 | B11 | 1.42 | 0.0688 | 0.0743 | 0.991
12 | B12 | 1.71 | 0.13 | 0.129 | 1.24
